The values below come from patent publication CN113975385A (dated 2022).

In the test the target is T1, human CD20 on Raji cells (human, UniProt P11836 1-297).
T1 construct: whole, on cells; also called Raji (CD20+/CD3-细胞)
T1 sequence (looked up): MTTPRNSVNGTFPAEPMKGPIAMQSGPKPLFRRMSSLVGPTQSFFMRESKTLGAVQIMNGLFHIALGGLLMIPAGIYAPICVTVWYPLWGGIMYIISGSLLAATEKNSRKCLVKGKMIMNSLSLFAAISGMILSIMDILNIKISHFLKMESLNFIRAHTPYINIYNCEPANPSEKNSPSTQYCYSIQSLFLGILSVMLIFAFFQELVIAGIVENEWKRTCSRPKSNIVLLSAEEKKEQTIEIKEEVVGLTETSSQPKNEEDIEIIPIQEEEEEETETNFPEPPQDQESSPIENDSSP
Description: FACS, simultaneous binding: Calcein-AM Raji and FarRed Jurkat cells mixed 1:1, percent double-positive cells.

B1: W3278-U2T3.F18R-1.uIgG4.SP (bispecific antibody)
chain 1: QVQLQQPGAELVKPGASVKMSCKASGYTFTSYNMHWVKQTPGRGLEWIGAIYPGNGDTSYNQKFKGKATLTADKSSSTAYMQLSSLTSEDSAVYYCARSTYYGGDWYFNVWGAGTTVTVSAASTKGPSVFPLAPCSRSTSESTAALGCLVKDYFPEPVTVSWNSGALTSGVHTFPAVLQSSGLYSLSSVVTVPSSSLGTKTYTCNVDHKPSNTKVDKRVGGGGSGGGGSQVQLVQSGAEVKKPGSSVKVSCKASGFAFTDYYIHWVRQAPGQGLEWMGWISPGNVNTKYNENFKGRVTITADKSTSTAYMELSSLRSEDTAVYYCARDGYSLYYFDYWGQGTLVTVLEDLKNVFPPEVAVFEPSEAEISHTQKATLVCLATGFYPDHVELSWWVNGKEVHSGVCTDPQPLKEQPALQDSRYALSSRLRVSATFWQNPRNHFRCQVQFYGLSENDEWTQDRAKPVTQIVSAEAWGRYGPPCPPCPAPEFLGGPSVFLFPPKPKDTLMISRTPEVTCVVVDVSQEDPEVQFNWYVDGVEVHNAKTKPREEQFNSTYRVVSVLTVLHQDWLNGKEYKCKVSNKGLPSSIEKTISKAKGQPREPQVYTLPPCQEEMTKNQVSLWCLVKGFYPSDIAVEWESNGQPENNYKTTPPVLDSDGSFFLYSRLTVDKSRWQEGNVFSCSVMHEALHNHYTQKSLSLSLG
chain 2: QVQLQQPGAELVKPGASVKMSCKASGYTFTSYNMHWVKQTPGRGLEWIGAIYPGNGDTSYNQKFKGKATLTADKSSSTAYMQLSSLTSEDSAVYYCARSTYYGGDWYFNVWGAGTTVTVSAASTKGPSVFPLAPCSRSTSESTAALGCLVKDYFPEPVTVSWNSGALTSGVHTFPAVLQSSGLYSLSSVVTVPSSSLGTKTYTCNVDHKPSNTKVDKRVESKYGPPCPPCPAPEFLGGPSVFLFPPKPKDTLMISRTPEVTCVVVDVSQEDPEVQFNWYVDGVEVHNAKTKPREEQFNSTYRVVSVLTVLHQDWLNGKEYKCKVSNKGLPSSIEKTISKAKGQPREPQVCTLPPSQEEMTKNQVSLSCAVKGFYPSDIAVEWESNGQPENNYKTTPPVLDSDGSFFLVSRLTVDKSRWQEGNVFSCSVMHEALHNHYTQKSLSLSLG
chain 3: QIVLSQSPAILSASPGEKVTMTCRASSSVSYIHWFQQKPGSSPKPWIYATSNLASGVPVRFSGSGSGTSYSLTISRVEAEDAATYYCQQWTSNPPTFGGGTKLEIKRTVAAPSVFIFPPSDEQLKSGTASVVCLLNNFYPREAKVQWKVDNALQSGNSQESVTEQDSKDSTYSLSSTLTLSKADYEKHKVYACEVTHQGLSSPVTKSFNRGEC
light: DIVMTQSPDSLAVSLGERATINCKSSQSLLNSRTRKNYLAWYQQKPGQPPKLLIYWASTRQSGVPDRFSGSGSGTDFTLTISSLQAEDVAVYYCTQSHTLRTFGGGTKVEIKPDIQNPDPAVYQLRDSKSSDKSVCLFTDFDSQTQVSQSKDSDVYITDKCVLDMRSMDFKSNSAVAWSQKSDFACANAFQNSIIPEDTFFPSPESS
notes: WuXiBody format F18R-1, human IgG4 with S228P and knobs-into-holes; also called WBP3278 lead Ab; W3278 lead Ab
As to B1, the binding result is “binds”.
